Columns and labels:
renal cortex = test: T1 weighted MRI of rat kidneys after i.v. contrast agent (contrast enhancement in renal cortex); conditions: 20 minutes after 30 seconds in vivo i.v. infusion of 800 μl Ringer solution containing ~1 mg complex
Procedure: The MRI hardware used to obtain the date in the figures described below is a Pharmascan 7T small animal MR scanner (from Bruker Biospin MRI GmbH, Ettlingen, Germany). The software is Paravision version 4 (from Bruker Biospin MR GmbH). Dynamic imaging was performed using a Flash sequence, with 2 mm slice thickness, 256×256 matrix, field of view (FOV) 6 cm, TR15.576 ms, TE3.7 ms, 250 evolution cycles, scan time 12 mins 27 sec. T1 weighted imaging was performed using a Flash T1 sequence, with 2 mm slice thickness, 256×256 matrix, FOV 6 cm, TR15.57 ms, TE3.7 ms, 10 averages, scan time 30 secs. T2 weighted imaging was performed using a Turbo RARE T2 sequence, with 2 mm slice thickness, 256×256 matrix, FOV 6 cm, TR4200 ms, TE36 ms, 3 averages, scan time 6 mins 47 secs.

[1] = test system: kidney (glomeruli, proximal tubular cells); conditions: cited from earlier work

Substance	contrast enhancement, T1 weighted MRI of coronal sections of rat kidneys (ex vivo) (renal cortex)	time at which breakdown products can be detected in plasma after i.v. injection ([1]; labelled aprotinin, i.v. injection)	renal handling of native aprotinin (filtration, tubular uptake) ([1]; rat, in vivo)
Gd-DTPA-Lysozyme: Complex of chicken egg white lysozyme linked via DTPA chelator to Gadolinium, Example 2 standard protocol	selectively enhanced the contrast in the renal cortex	–	–
aprotinin	–	20 min	freely filtered in the glomeruli and quantitatively taken up into proximal tubular cells
